According to PMC9033776:

What was measured:
[1] = molecular target: BRD4-bromo1 (amino acids 54–168) (UniProt O60885); test: ITC; 3 mM H2A.Z peptides titrated into 0.3 mM bromodomains; 25 °C; 20 mM Hepes-Na pH 7.5, 100 mM NaCl; One Set of Binding Sites model
[2] = molecular target: BRD4-bromo2 domain (amino acids 351–457) (UniProt O60885); test: as above

**Q.** For “di-acetylated H2A.Z (1–15) K4acK7ac peptide (from UniProt P0C0S5 2-16)”, which Kd [1] is on record?
**A.** 4810 µM

**Q.** What about the Kd [2] of the same substance?
**A.** 820 µM

**Q.** Which Kd [1] does the source give for “tri-acetylated H2A.Z (1–15) K4acK7acK11ac peptide (from UniProt P0C0S5 2-16)” here?
**A.** 2270 µM

**Q.** What about the Kd [2] of the same substance?
**A.** 600 µM
